Data set [1] concerns the target HLA-A2.1 (HLA-A*0201) with β2-microglobulin (human). Description: cell-based or functional assay.
Data set [2] shares this target. Description: peptide-binding assay: stabilisation of HLA-A2 on T2 cells, fluorescence relative to PR1.
In data set [3] the test system is peptide-pulsed T2 cells, HLA-A2 transfected K562. As to the kind of experiment: Elicitation of cyclin E peptide-specific CTL lines and killing of targets. The following applies: for donors in which peptide-stimulated CTL lines killed CCNE1144-152 and CCNE2144-152-pulsed T2 cells: PBMCs from 7 HLA-A2 positive normal donors. The data set is classed as cell-based, human. An excerpt: (§1) Nonameric peptides derived from cyclin E1 and cyclin E2 and predicted to bind to the HLA-A2 allele have similar amino acid sequences, differing only at position 7. Thus, the binding of CCNE1144-152 (cyclin E1 derived) and […] (cyclin E2 derived) was compared to that of PR1 by a peptide-binding assay. […] In 3 of 7 donors, CCNE1144-152-stimulated CTL lines killed both CCNE1144-152 and CCNE2144-152-pulsed T2 cells but not non-peptide-pulsed T2 cells and irrelevant peptide-pulsed T2 cells. In 4 of 7 same donors, CCNE2144-152-stimulated CTL lines killed both CCNE2144-152 and CCNE1144-152-pulsed T2 cells but not non-peptide-pulsed T2 cells and irrelevant peptide-pulsed T2 cells.
Thus, each peptide-specific CTLs can recognize both peptides with HLA-A2, but the immunogenicity of each peptide is different between individuals. Moreover, one of 4 CCNE1144-152-stimulated CTL lines which killed CCNE1144-152-pulsed T2 cell killed HLA-A2 transfected K562 leukemic cell line which is over-expressing cyclin E1 protein, but not non-transfected K562 leukemic cell line. Thus, CCNE1144-152-specific CTL can distinguish leukemic cell lines from normal PBMCs. From the data, it was concluded that cyclin E1/E2 derived peptides are tumor antigens, because 1) cyclin E1/E2 are highly over-expressed in hematological malignancy, 2) cyclin E1/E2 peptides can sufficiently bind to HLA-A2 to stimulate CTL and 3) CCLE1144-152 specific CTL preferentially kills leukemic cell lines HLA-A2 restrictively.

The target in another data set is HLA-A2 (Homo sapiens, UniProt P04439, D140Y/D185E/D98H/E176V/E277Q/G131W/G231S/I119V/I121R/I166T/I218V/L300P/L318F/N151K/N90K/P208A/P217A/Q86G/Q94H/R138H/R169H/T345S). Description: Peptide-binding assay: HLA-A2 stabilization on T2 cells. The following applies: HLA-A2 stabilization on T2 cells relative to PR1.
Source text: as §1

In another data set the test system is peptide-loaded T2 cells. As to the kind of experiment: Induction of primary CTL responses; cytotoxicity toward peptide-loaded T2 cells.
For the next data set, the system named is myeloid leukemia. The following applies: human, in vivo. An excerpt: PR1 peptide vaccine can elicit PR1-CTL immunity in patients with myeloid leukemia. […] To test this in refractory leukemia patients, a phase I/II vaccine study was initiated. HLA-A2+ patients with CML (interferon-resistant or relapsed after BMT), AML (smoldering relapse or ≧2nd CR) or MDS (RAEB or RAEBt) with no detectable antibodies to proteinase 3 (no detectable cANCA) were eligible. Patients that relapsed after BMT or those ineligible for BMT were also eligible for study. Pregnant patients, HIV+ patients, and those with known vasculitis were excluded. Patients were required to have immunosuppression (i.e. cyclosporine, steroids) discontinued 4 weeks prior to study entry.
Primary endpoints were (1) toxicity assessment including the induction of autoimmunity resembling Wegener's granulomatosis, the systemic vasculitis associated with cANCA antibodies; and (2) induction of an immune response assessed by cytokine flow cytometry (CFC) of γ-IFN and PR1/HLA-A2 tetramer staining of PBMC before and 3 weeks after the last vaccination. Secondarily, clinical responses were assessed by standard criteria with bone marrow biopsy, cytogenetic studies (standard chromosome banding) and molecular studies (PCR for bcr-abl or other known abnormalities such as t(15;17), inv16, etc.) 3 weeks after the last vaccination. Patients were seen and evaluated in clinic every 3 weeks during the study period. […]

In data set [4] the target is T1, HLA-A2.1 (HLA-A*0201) with β2-microglobulin (human).
T1 construct: In the first assay HLA-A2.1 stood on TAP-deficient T2 cells; In the second assay it was a heterotrimer of HLA-A2.1 heavy chain, peptide and I125-labeled β2-microglobulin in solution
Description: T2 cell HLA-A2.1 stabilisation (flow cytometry with BB7.2) and I125-β2-microglobulin dissociation from the heterotrimer. On the technique in general: In flow cytometry, cells or beads pass a laser one at a time.

Ends that are not written are not given here.

Description for peptide-loaded T2 cells: Induction of Primary CTL responses to peptides. These peptides were next used to stimulate T cells specific for peptide-coated targets. PBMC from a normal healthy donor heterozygous for HL-A2.1 were stimulated with peptide-pulsed T2 cells. […] Briefly, T2 cells (which co-express the costimulatory molecule B7.1) were washed 3 times in serum-free RPMI culture media supplemented with penicillin/streptomycin and glutamine (CM) and incubated with peptide at 20 μg/mL for 2 hr in CM. The peptide loaded T2 cells were then irradiated with 7500 cGy, washed once, and suspended with freshly isolated PBMC at a 1:1 ratio in CM supplemented with 10% human serum (HS) (Sigma, St. Louis, Mo.). After 7 days in culture, a second stimulation was performed and the following day, 60 IU/ml of recombinant human interleukin-2 (rhIL2) (Biosource International, Camarillo, Calif.) was added. After 14 days in culture a third stimulation was performed, followed on day 15 by addition of rhIL-2. A fourth stimulation was performed on day 21 followed on day 22 by the addition of rhIL2. After a total of 27 days in culture, the peptide-stimulated T cells were harvested and tested for peptide-specific cytotoxicity toward Calcein AM-labeled T2 cells, leukemia cell lines, and fresh human leukemia cells, as merely exemplary embodiments. […]

Turning to “BB7.2, mouse monoclonal antibody against HLA-A2.1”, in data set [1], the specific lysis of HLA-A2+ MCF-7 cells by PR1-CTL (calcein AM, 4 hours co-incubation) is 17%.

As for “CCNE1144-152 (cyclin E1 derived nonameric peptide) (from UniProt P24864 147-155)”, in data set [2], the FI CCNE1144-152/FI PR1 was 1.01.

Regarding “CCNE1144-152: Nonameric peptide derived from cyclin E1, predicted to bind to the HLA-A2 allele (ILLDWLMEV)”, in data set [3], the “peptide-stimulated CTL lines that killed HLA-A2 transfected K562 but not non-transfected K562” value is on record as “one of 4”; the “donors in which peptide-stimulated CTL lines killed CCNE1144-152 and CCNE2144-152-pulsed T2 cells” value is listed as 3 of 7. In addition, the “FI peptide/FI PR1” value in the data set with HLA-A2 turned out to be 1.008.

For the molecule “CCNE2144-152: Nonameric peptide derived from cyclin E2, predicted to bind to the HLA-A2 allele (ILLDWLLEV)”, the “donors in which peptide-stimulated CTL lines killed CCNE1144-152 and CCNE2144-152-pulsed T2 cells” value in data set [3] is listed as 4 of 7. In the data set with HLA-A2, the “FI peptide/FI PR1” value was determined as 1.189.

Regarding `CC[C@H](C)[C@H](NC(=O)[C@H](CCCNC(=N)N)NC(=O)[C@H](CCSC)NC(=O)[C@@H](NC(=O)[C@H](CCC(N)=O)NC(=O)[C@H](CCC(=O)O)NC(=O)[C@H](Cc1ccccc1)NC(=O)[C@H](CC(C)C)NC(=O)[C@@H](N)CCCNC(=N)N)C(C)C)C(=O)O` [MY4, RLFEQVMRI], in the data set on peptide-loaded T2 cells, the “cytotoxicity of CTL line generated against the peptide toward MY2-loaded targets” value was “did not demonstrate any significant cytotoxicity”.

KLLLALAGL [MY2]: in the data set with peptide-loaded T2 cells, the “specific lysis of cognate peptide-loaded target cells by CTL line generated against the peptide” value is recorded as “high specific lysis”.

Regarding VLQELNVTV [PR1, VLQELNVTV], in the data set on myeloid leukemia, the “dose levels eliminated on the basis of toxicity in Phase I” value is recorded as “none of the doses were eliminated on the basis of toxicity”.

B1: MY5 peptide (LIQPFMFRL) from myeloperoxidase (peptide)
peptide: LIQPFMFRL
On to B1, for which, in data set [4], the binding result was “binds”.

B2: MY2 peptide (KLLLALAGL) from myeloperoxidase (peptide)
peptide: KLLLALAGL
In the case of B2, the binding result in data set [4] is “binds”.

B3: MY4 peptide (RLFEQVMRI) from myeloperoxidase (peptide)
peptide: RLFEQVMRI
As for B3, the binding result in data set [4] is reported as “binds”.

B4: MY1 peptide (SLWRRPFNV) from myeloperoxidase (peptide)
peptide: SLWRRPFNV
As for B4, the binding result in data set [4] is reported as “binds”.

B5: PR1 peptide (VLQELNVTV), HLA-A2.1-restricted nonamer derived from proteinase 3 (peptide)
peptide: VLQELNVTV
For the molecule B5, the binding result in data set [4] was “binds”.

B6: MY3 peptide (LLSYFKQPV) from myeloperoxidase (peptide)
peptide: LLSYFKQPV
Turning to B6, the binding result in data set [4] was “binds”.
